The text below walks through data of US20250296912A1.

Some results are limits rather than exact numbers.

The target in this experiment is prostate specific antigen (Homo sapiens).

Consider “Analog 210 (Ac-Hyp-Ser-Ser-Chg-Gln-Ser-Ser-Pro-O-(CH2)3-acylfulvene) (peptide)”, for which the IC50 (48 hour exposure), Prostate DuPro (trace PSA) was 3500 nM and the IC50 (48 hour exposure), Prostate LnCAP (positive PSA) was found to be 810 nM.
Take “Analog 215 (Illudin S-Pro-Ser-Ser-Gln-Chg-Ser-Ser-Hyp-Ac) (peptide)”: the IC50 (48 hour exposure), Prostate LnCAP (positive PSA) was above 20000 nM.
“Analog 216 (Illudin M-Pro-Ser-Ser-Gln-Chg-Ser-Ser-Hyp-Ac) (peptide)” displayed an IC50 (48 hour exposure), Prostate DuPro (trace PSA) of 280 nM and an IC50 (48 hour exposure), Prostate LnCAP (positive PSA) of 190 nM.
